The text below walks through data of patent US20170306053A1 (Astellas, published 2017).

Like-named read-outs stand apart in the source and are kept apart here.

Assay [1] addresses T1, human TLR4/MD2 (on cells) (human, UniProt O00206 24-839; Q9Y6Y9 19-160). Nature of the assay: cell-based or functional assay.
Assay [2] deals with T1, human TLR4/MD2 (on cells). Nature of the assay: cell-based or functional assay. The source holds these as a separate data set.
Assay [3] has as its target T1, human TLR4/MD2 (on cells). Nature of the assay: cell ELISA on human TLR4/MD2 expressing HEK 293 cells. The protocol:
In order to evaluate the binding activity of the tandem form a (bispecific antibody format having the anti-human TLR2 antibody portion on the outer side and the anti-human TLR4 antibody portion on the inner side) prepared in Example 1 to the human TLR4, cell ELISA was performed. As reference antibodies, the tandem form c and the TLR4-IgG were used. Human TLR4/MD2 expressing HEK 293 cells were seeded at 1×10⁴ cells/well in a BD Bio Coat poly D-lysine 384 well plate (Becton Dickinson Co., Ltd.) using an α-MEM culture medium (Life Technologies Co., Ltd.) and incubated overnight. […] Twenty minutes later, 25 μL of 1 M sulfuric acid was added to stop the color reaction, and the color intensity thereof was measured with Safire II (Tecan Co., Ltd.) to evaluate the binding activity of the antibody. Using the obtained measurement results, 50% effective concentration (EC₅₀) of each antibody was calculated from 4 parameter logistic curve regression by statistical analysis software GraphPad Prism (GraphPad Software Co., Ltd.).
For orientation: An ELISA detects its analyte on a solid surface through an enzyme-linked reagent.

Assay [4] addresses T2, human TLR2 protein (R&D systems Co., 2616 TR/CF) (human, UniProt O60603 21-590).
T2 construct: Bought protein captured on an anti-His IgG chip; not shown: His tag implied by capture on anti-His IgG
The experiment in a line: SPR (Biacore T200), human TLR2 captured on anti-His IgG, antibody as analyte, bivalent analyte model. Here is the method:
In order to evaluate the binding activity of the tandem form a prepared in Example 1 to the human TLR2, SPR analysis was performed. The tandem form c and the TLR2-IgG were used as the reference antibody. For SPR analysis, Biacore T200 (GE Healthcare Japan Corporation) was used. Anti-His IgG (attached to His Capture Kit) was immobilized on CMS sensor chip using His Capture Kit (GE Healthcare Japan Corporation, 28-9950-56) and Amine Coupling Kit (GE Healthcare Japan Corporation, BR-1000-50). […] Thereafter, a solution (eight step, two fold serial dilution in the concentration range of final concentration from 100 nM to 0.781 nM) obtained by serially diluting each purified antibody (tandem form a, tandem form c, or TLR 2-IgG) with HBS-EP+buffer was added at a flow rate of 50 μL/min for 2 minutes, and the binding between the purified antibody and TLR 2 was measured. Next, HBS-EP+buffer was added at a flow rate of 50 μL/min for 5 minutes, and dissociation of the purified antibody and the human TLR2 was measured. Bivalent analyte model, Rmax was analyzed by Fit local, a binding rate constant (kₐ) and a dissociation rate constant (kd) were calculated, and kd was divided by kₐ to calculate the binding dissociation constant (KD).
Background: Surface plasmon resonance follows binding to a sensor surface in real time, without labels.

The target of assay [5] is human TLR2 (endogenous, on U937 cells) (human, UniProt O60603 21-784). The experiment in a line: cell-based or functional assay.
human TLR2 (endogenous, on U937 cells), sequence (O60603 21-784): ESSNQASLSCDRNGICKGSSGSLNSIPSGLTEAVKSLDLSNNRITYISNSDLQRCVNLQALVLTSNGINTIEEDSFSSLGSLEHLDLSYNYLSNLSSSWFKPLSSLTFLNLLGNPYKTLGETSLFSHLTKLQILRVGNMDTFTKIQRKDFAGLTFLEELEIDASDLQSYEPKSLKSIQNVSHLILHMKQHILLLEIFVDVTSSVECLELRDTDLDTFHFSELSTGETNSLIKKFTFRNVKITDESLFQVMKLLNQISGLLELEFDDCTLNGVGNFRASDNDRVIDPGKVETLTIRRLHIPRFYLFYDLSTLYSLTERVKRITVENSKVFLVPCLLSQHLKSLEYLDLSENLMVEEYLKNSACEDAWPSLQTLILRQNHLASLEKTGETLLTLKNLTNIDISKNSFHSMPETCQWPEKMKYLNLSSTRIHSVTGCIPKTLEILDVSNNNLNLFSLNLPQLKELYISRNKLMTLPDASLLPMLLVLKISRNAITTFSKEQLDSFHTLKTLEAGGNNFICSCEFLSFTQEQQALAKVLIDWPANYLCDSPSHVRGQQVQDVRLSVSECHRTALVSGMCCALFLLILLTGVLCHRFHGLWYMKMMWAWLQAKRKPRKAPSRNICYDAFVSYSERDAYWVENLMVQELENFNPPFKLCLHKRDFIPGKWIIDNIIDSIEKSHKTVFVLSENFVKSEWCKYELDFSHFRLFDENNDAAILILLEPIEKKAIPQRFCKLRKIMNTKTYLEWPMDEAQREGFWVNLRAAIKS

T1 sequence (O00206 24-839, chain 1 of 2): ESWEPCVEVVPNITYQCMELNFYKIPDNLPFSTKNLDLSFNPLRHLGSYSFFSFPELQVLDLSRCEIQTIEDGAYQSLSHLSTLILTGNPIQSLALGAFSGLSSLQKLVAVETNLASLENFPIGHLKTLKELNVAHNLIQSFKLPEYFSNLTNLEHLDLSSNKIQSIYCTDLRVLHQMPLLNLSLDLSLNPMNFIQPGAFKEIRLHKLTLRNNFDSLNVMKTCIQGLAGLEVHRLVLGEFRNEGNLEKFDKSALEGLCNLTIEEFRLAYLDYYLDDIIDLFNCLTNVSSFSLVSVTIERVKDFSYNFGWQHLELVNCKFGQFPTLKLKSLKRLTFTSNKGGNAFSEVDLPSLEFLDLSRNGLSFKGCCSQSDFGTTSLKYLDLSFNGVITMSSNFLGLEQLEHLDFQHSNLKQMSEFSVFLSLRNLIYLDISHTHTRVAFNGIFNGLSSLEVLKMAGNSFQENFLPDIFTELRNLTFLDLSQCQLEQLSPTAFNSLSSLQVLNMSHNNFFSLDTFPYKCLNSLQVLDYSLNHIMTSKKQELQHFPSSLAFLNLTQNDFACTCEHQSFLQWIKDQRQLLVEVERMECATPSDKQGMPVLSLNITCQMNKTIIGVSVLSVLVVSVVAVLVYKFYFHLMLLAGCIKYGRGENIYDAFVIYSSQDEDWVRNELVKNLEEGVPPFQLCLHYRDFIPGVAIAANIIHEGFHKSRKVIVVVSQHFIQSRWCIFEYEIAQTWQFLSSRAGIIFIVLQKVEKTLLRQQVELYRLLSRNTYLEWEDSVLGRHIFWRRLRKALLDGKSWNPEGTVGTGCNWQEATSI
T1 sequence (Q9Y6Y9 19-160, chain 2 of 2): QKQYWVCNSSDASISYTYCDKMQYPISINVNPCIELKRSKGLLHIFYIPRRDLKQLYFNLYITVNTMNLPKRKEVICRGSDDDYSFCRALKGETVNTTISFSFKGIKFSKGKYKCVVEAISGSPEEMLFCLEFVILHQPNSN
T2 sequence (O60603 21-590): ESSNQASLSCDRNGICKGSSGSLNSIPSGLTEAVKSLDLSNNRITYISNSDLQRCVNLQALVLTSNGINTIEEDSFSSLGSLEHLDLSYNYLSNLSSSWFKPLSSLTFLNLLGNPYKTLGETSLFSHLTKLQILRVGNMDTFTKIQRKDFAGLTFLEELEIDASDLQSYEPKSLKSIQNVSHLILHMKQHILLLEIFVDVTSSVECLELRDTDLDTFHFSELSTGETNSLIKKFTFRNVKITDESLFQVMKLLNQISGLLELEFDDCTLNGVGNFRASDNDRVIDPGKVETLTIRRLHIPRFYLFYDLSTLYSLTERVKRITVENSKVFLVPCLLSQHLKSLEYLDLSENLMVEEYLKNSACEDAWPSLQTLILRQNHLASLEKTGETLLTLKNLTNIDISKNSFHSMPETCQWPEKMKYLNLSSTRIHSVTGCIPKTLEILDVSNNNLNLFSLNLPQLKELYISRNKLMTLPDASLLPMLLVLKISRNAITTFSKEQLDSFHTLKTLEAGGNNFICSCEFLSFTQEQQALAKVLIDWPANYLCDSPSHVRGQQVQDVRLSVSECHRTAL

B1: TLR4-IgG (anti-human TLR4 antibody of IgG type) (antibody, V domains shown)
VH: EVQLVESGGGLVQPGGSLRLSCAASGFTFDTYAMHWVRQAPGKGLEWVAGISWNSGNIGYADSVKGRFTISRDNSKNTLYLQMNSLRAEDTAVYYCAKDWDNWNLFDYWGQGTLVTVSS
VL: DIQMTQSPSSLSASVGDRVTITCRASQSISSWLAWYQQKPGKAPKLLIYKASSLESGVPSRFSGSGSGTDFTLTISSLQPEDFATYYCQQYSSYSWTFGQGTKVEIKR
notes: it says variable regions and human Iggamma1 / Igkappa constant regions as used in tandem form a
As a reminder, the EC50 is the midpoint of the concentration-response curve. Read a high EC50 as a need for much substance. B1: the “IC50 (M), Neutralization Activity to Human TLR4 (LPS-induced IL-6 production inhibition, U937 cells)” value in assay [1] and in assay [2] was 2.2e-12 M throughout. The molecule further displayed an EC50 in assay [3] of 0.38 nM.

B2: Tandem form a (protease recognition sequence SEQ ID NO: 5; light chain linker SEQ ID NO: 9) (bispecific antibody)
chain 1: not shown
chain 2: AIQMTQSPSSLSASVGDRVTITCRASQVIRNDLGWYQQKPGKAPKFLIYAASSLQSGVPSRFSGSGSGTDFTLTISSLQPEDFATYYCLQDYNYPLTFGGGTKVEIKRTVAAPSVFIFPPSDEQLKSGTASVVCLLNNFYPREAKVQWKVDNALQSGNSQESVTEQDSKDSTYSLSSTLTLSKADYEKHKVYACEVTHQGLSSPVTKSFNRGEC
chain 3: not shown
B2: in assay [4], the Kd was found to be 2.32 nM.

B3: TLR2-IgG (anti-human TLR2 antibody of IgG type) (antibody, V domains shown)
VH: QVQLQESGPGLVKPSETLSLTCTVSGGSISSFYWTWIRQPPGKGLEWIGYIHYSGSTNYNPSLKSRVTISVDTSKNQFSLTLSSVTAADTAVYYCARRRSMNWFDPWGQGTLVIVSS
VL: AIQMTQSPSSLSASVGDRVTITCRASQVIRNDLGWYQQKPGKAPKFLIYAASSLQSGVPSRFSGSGSGTDFTLTISSLQPEDFATYYCLQDYNYPLTFGGGTKVEIKR
notes: as for B1
Molecule B3 came in with a Kd in assay [4] of 2.69 nM. The “IC50 (read off the curve); inhibition of Pam2CSK4-induced IL-6 production in U937 cells” value in assay [5] was approximately 0.1 nM.
